This is an account of results in patent US20250320281A1.

A value given as a limit tells only on which side of the number the result lay.

Holding throughout (test): cell-based or functional assay
The target of experiment [1] is HIV-1 92BR020 Env (pseudovirus, clade B) (HIV-1).
Experiment [2] addresses HIV-1 92UG024 envelope glycoprotein (Env) on pseudovirus (HIV-1).
Experiment [3] addresses HIV-1 93IN905 envelope glycoprotein (Env) on pseudovirus (HIV-1).
Experiment [4] has as its target HIV-1 Env of isolate 6535.3 (subtype B pseudovirus) (HIV-1).
The target in experiment [5] is HIV-1 Env of isolate 92UG001 (pseudovirus) (HIV-1).
The target of experiment [6] is HIV-1 Env of isolate JR-CSF (pseudovirus) (HIV-1) (UniProt P20871).
The target of experiment [7] is HIV-1 Env of isolate MGRM-AE-008 (HIV-1).
The target of experiment [8] is HIV-1 Env of isolate MGRM-D-018 (clade D), on pseudovirus (HIV-1).
The target of experiment [9] is HIV-1 Env of isolate MGRM-F1-020 (HIV-1).
Experiment [10] deals with HIV-1 Env of isolate MGRM-F1-023 (HIV-1).
In experiment [11] the target is aMLV envelope, on pseudovirus (negative control virus).
Experiment [12] addresses HIV-1 Env of isolate 92UG114 (HIV-1).
In experiment [13] the target is HIV-1 Env of isolate 92WR020 (HIV-1).
The target of experiment [14] is HIV-1 Env of isolate 94KE105 (subtype AC) (HIV-1).
Experiment [15] deals with HIV-1 Env of isolate MG RM-D-020 (HIV-1).
The target in experiment [16] is HIV-1 Env of isolate MGRM-A-002 (HIV-1).
Experiment [17] deals with HIV-1 Env of isolate MGRM-A-011 (subtype A) (HIV-1).
The target of experiment [18] is HIV-1 Env of isolate MGRM-A-012 (subtype A) (HIV-1).
The target in experiment [19] is HIV-1 Env of isolate MGRM-AE-007 (subtype AE) (HIV-1).
For experiment [20], the target named is HIV-1 Env of isolate MGRM-C-005 (subtype C) (HIV-1).
In experiment [21] the target is HIV-1 Env of isolate MGRM-Chronic-B-003 (subtype B) (HIV-1).
Experiment [22] has as its target HIV-1 Env of isolate THR0.18 (subtype B) (HIV-1).
Experiment [23] deals with HIV-1 envelope glycoprotein (Env) of isolate MGRM-C-007 (HIV-1).
In experiment [24] the target is HIV-1 envelope glycoprotein (Env) of isolate MGRM-C-026 (HIV-1).
Experiment [25] addresses HIV-1 Env of isolate 92RW021 (clade A pseudovirus) (HIV-1).
Experiment [26] concerns the target HIV-1 Env of isolate 98CN009 (CRF07 BC) (HIV-1 isolate 98CN009).
The target of experiment [27] is HIV-1 Env of isolate CAAN.A2 (Acute), clade B, on pseudovirus (HIV-1).
Experiment [28] deals with HIV-1 Env of isolate LAVI_C3 (HIV-1).
Experiment [29] has as its target HIV-1 Env of isolate MGRM-Chronic-B-008, clade B, on pseudovirus (HIV-1).
For experiment [30], the target named is HIV-1 Env of isolate MGRM-D-020 (clade D pseudovirus) (HIV-1).
Experiment [31] has as its target HIV-1 Env of isolate MGRM-D-026 (clade D pseudovirus) (HIV-1).
Experiment [32] concerns the target HIV-1 Env of isolate PVO.4 (Acute), clade B, on pseudovirus (HIV-1).
The target in experiment [33] is HIV-1 Env of isolate TRO.11 (Acute), clade B, on pseudovirus (HIV-1).
The target of experiment [34] is HIV-1 Env of pseudovirus MGRM-AE-001 (clade CRF01_AE) (HIV-1).
Experiment [35] concerns the target HIV-1 Env of pseudovirus MGRM-Chronic-B-012 (HIV-1).
The target of experiment [36] is HIV-1 Env of pseudovirus MGRM-F1-010 (HIV-1).
Experiment [37] addresses HIV-1 Env of pseudovirus MGRM-F1-014 (HIV-1).
For experiment [38], the target named is HIV-1 Env of pseudovirus MGRM-G-024 (HIV-1, clade G isolate MGRM-G-024).
Experiment [39] addresses HIV-1 IAVI-C22 envelope glycoprotein (Env) on pseudovirus (HIV-1).

Sequence of 5345_I01 (PGT-137) (antibody) (VH): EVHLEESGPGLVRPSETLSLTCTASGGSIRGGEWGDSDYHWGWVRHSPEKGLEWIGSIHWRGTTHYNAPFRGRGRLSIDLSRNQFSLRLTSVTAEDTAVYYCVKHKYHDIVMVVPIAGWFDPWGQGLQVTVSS
Sequence of 5345_I01 (PGT-137) (antibody) (VL): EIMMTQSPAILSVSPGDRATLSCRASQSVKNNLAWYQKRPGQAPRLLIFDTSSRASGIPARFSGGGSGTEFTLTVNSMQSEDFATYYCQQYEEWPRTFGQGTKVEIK

As usually defined, the IC50 is the concentration needed to halve the response being measured. High values mean a need for much substance, low ones inhibition by little substance. With 4858_P08 (PGT-123) (antibody), the IC50 neutralization in experiment [1] came to 0.013 µg/mL. Besides, the neutralization IC50 in [2] was above 10 µg/mL; in experiment [3], 0.0071 µg/mL. For the same substance, the neutralization IC80 is above 10 µg/mL in [2] and 0.0281 µg/mL in experiment [3]. In addition, the neutralization IC90 in experiment [2] was above 10 µg/mL; in experiment [3], 0.0625 µg/mL. Besides, the neutralization IC95 in experiment [2] was above 10 µg/mL; in experiment [3] it was 0.131 µg/mL. Besides, the IC50 (µg/mL), pseudovirus neutralization in [4] is 0.004 µg/mL; in experiment [9], 0.051 µg/mL; in [10], 0.053 µg/mL. Besides, the IC50, pseudovirus neutralization in [5] was above 50 µg/mL; in experiment [8], 0.0047 µg/mL; in experiment [11], above 10 µg/mL. The Primary Neutralization Index (B cell culture supernatant) in [6] amounted to 1.6. Further, the 50% inhibitory concentration (IC50) in experiment [7] is above 50 µg/mL.

Turning to 5136_H01 (PGT-131) (antibody), the IC50 (µg/mL), pseudovirus neutralization was above 50 µg/mL in experiment [12]; 0.013 µg/mL in experiment [14]; above 50 µg/mL in [15]; above 50 µg/mL in experiment [17]; above 50 µg/mL in [18]; 0.026 µg/mL in experiment [19]. For the same substance, the IC50 (µg/mL), pseudovirus neutralization in [23] was above 50 µg/mL; in experiment [24], 1.67 µg/mL. For the same substance, the IC50 is 0.168 µg/mL in experiment [13] and above 50 µg/mL in experiment [16]. In experiment [6], this substance displayed a Primary Neutralization Index (B cell culture supernatant) of 6.2. For the same substance, the IC50 neutralization in experiment [20] was 1.36 µg/mL; in [21] it was above 50 µg/mL; in experiment [22], above 50 µg/mL.

Take 5145_B14 (PGT-127) (antibody): the IC50 (µg/mL), pseudovirus neutralization was 0.02 µg/mL in experiment [4], above 50 µg/mL in experiment [9] and 0.119 µg/mL in experiment [10]. The substance also yielded an IC50, pseudovirus neutralization in [5] above 50 µg/mL. This substance showed a Polyclonal Transfectant Neutralization Index in experiment [6] of 1.61. Further, the Primary Neutralization Index (B cell culture supernatant) in [6] stood at 31.1. In experiment [7], this substance yielded an IC50 above 50 µg/mL.

In experiment [1], 5123_A06 (PGT-125) (antibody) had an IC50 neutralization of 0.0214 µg/mL. Also, the IC50 (µg/mL), pseudovirus neutralization in experiment [4] is 0.01 µg/mL; in experiment [9], above 50 µg/mL; in [10], 0.12 µg/mL. In addition, the IC50, pseudovirus neutralization in [5] was above 50 µg/mL; in experiment [8], 0.0382 µg/mL; in experiment [11], above 10 µg/mL. In experiment [6], this substance had a Polyclonal Transfectant Neutralization Index of 119. In [6], this substance returned a Primary Neutralization Index (B cell culture supernatant) of 1730. Further, in experiment [7], the IC50 is above 50 µg/mL.

In experiment [1], 5141_B17 (PGT-126) (antibody) came in with an IC50 neutralization of 0.0163 µg/mL. Further, the IC50, pseudovirus neutralization in [2] is above 10 µg/mL; in [3] it was 0.0194 µg/mL; in [5] it was above 50 µg/mL; in experiment [8], 0.0093 µg/mL; in [11] it was above 10 µg/mL. Moreover, the figures for the IC80 (pseudovirus neutralization) in experiment [2] and in experiment [3] were above 10 µg/mL and 0.0676 µg/mL, respectively. Moreover, the IC90 (pseudovirus neutralization) was above 10 µg/mL in experiment [2] and 0.14 µg/mL in experiment [3]. The values for the IC95 (pseudovirus neutralization) in [2] and in experiment [3] were above 10 µg/mL and 0.275 µg/mL, respectively. In addition, the IC50 (µg/mL), pseudovirus neutralization was 0.022 µg/mL in experiment [4], above 50 µg/mL in [9] and 0.009 µg/mL in [10]. In [6], the Polyclonal Transfectant Neutralization Index is 102. Also, the Primary Neutralization Index (B cell culture supernatant) in experiment [6] is 1410. In experiment [7], this substance yielded an IC50 above 50 µg/mL.

Regarding 4838_L06 (PGT-121) (antibody), the IC50 (µg/mL), pseudovirus neutralization in experiment [4] is 0.005 µg/mL; in [9] it was 0.167 µg/mL; in experiment [10], 0.097 µg/mL. Further, the IC50, pseudovirus neutralization in [5] was above 50 µg/mL; in experiment [11] it was above 10 µg/mL. In addition, the IC50 in experiment [7] was above 50 µg/mL.

On to VRC01 (antibody), for which the IC50 in [15] is 0.192 µg/mL; in experiment [9], 1.89 µg/mL; in [10], 0.392 µg/mL.

Take 5345_I01 (PGT-137) (antibody): the IC50 (µg/mL), pseudovirus neutralization is above 50 µg/mL in experiment [12]; 18.5 µg/mL in [14]; above 50 µg/mL in experiment [15]; above 50 µg/mL in experiment [17]; above 50 µg/mL in experiment [18]; above 50 µg/mL in experiment [19]. Moreover, the IC50 (µg/mL), pseudovirus neutralization in experiment [23] was above 50 µg/mL; in experiment [24], 0.011 µg/mL. Further, the IC50 was 0.005 µg/mL in experiment [13] and above 50 µg/mL in [16]. In experiment [6], this substance registered a Primary Neutralization Index (B cell culture supernatant) of 1.1. The IC50 neutralization in experiment [20], in experiment [21] and in experiment [22] was above 50 µg/mL throughout.

For 5114_A19 (PGT-128) (antibody), the IC50 (µg/mL), pseudovirus neutralization is 0.083 µg/mL in experiment [12]; 0.007 µg/mL in experiment [14]; 0.011 µg/mL in experiment [15]; above 50 µg/mL in experiment [17]; 0.025 µg/mL in experiment [18]; above 50 µg/mL in experiment [19]. Besides, the IC50 (µg/mL), pseudovirus neutralization is 0.111 µg/mL in experiment [23] and 0.007 µg/mL in experiment [24]. The results for the IC50 in [13] and in [16] were 0.005 µg/mL and 0.149 µg/mL, respectively. For the same substance, in experiment [6], the Polyclonal Transfectant Neutralization Index came to 136. The substance also registered a Primary Neutralization Index (B cell culture supernatant) in experiment [6] of 77.5. Also, the IC50 neutralization in experiment [20] is 0.03 µg/mL; in experiment [21], 0.007 µg/mL; in experiment [22], above 50 µg/mL.

Take 1496_C09 (PG9) (TCN-109) (antibody): the IC50 (µg/ml), pseudovirus neutralization worked out at 0.05 µg/mL in [25]; 1.07 µg/mL in experiment [26]; 5.67 µg/mL in experiment [27]; 6.66 µg/mL in experiment [29]; 2.03 µg/mL in experiment [30]; 17.5 µg/mL in experiment [31]. Also, the IC50 (µg/ml), pseudovirus neutralization in experiment [32] is 4.01 µg/mL; in [33] it was 5.43 µg/mL; in experiment [35] it was 0.91 µg/mL; in experiment [36], 0.03 µg/mL; in experiment [37] it was 0.01 µg/mL; in experiment [38] it was 0.07 µg/mL. The results for the IC50 in experiment [28] and in experiment [34] were 1.45 µg/mL and 2.97 µg/mL, respectively. Besides, the IC50, pseudovirus neutralization came out at 0.0444 µg/mL in experiment [8] and 24.9 µg/mL in experiment [39].

Regarding 4877_D15 (PGT-122) (antibody), the IC50 neutralization in experiment [1] came to 0.0337 µg/mL. The IC50 (µg/mL), pseudovirus neutralization was 0.006 µg/mL in [4], 0.321 µg/mL in [9] and 0.154 µg/mL in experiment [10]. For the same substance, the figures for the IC50, pseudovirus neutralization in experiment [5], in [8] and in experiment [11] were above 50 µg/mL, 0.0115 µg/mL and above 10 µg/mL, respectively. This substance also registered an IC50 in experiment [7] above 50 µg/mL.
